Measurements published in patent US20250382355A1 (Merck Sharp & Dohme, published 2025).
Where a chain is given by its changes, count along the chain named.

T1: MERS spike protein on recombinant CHO K1 cells (MERS-CoV, UniProt K9N5Q8 18-1353)
T1 sequence: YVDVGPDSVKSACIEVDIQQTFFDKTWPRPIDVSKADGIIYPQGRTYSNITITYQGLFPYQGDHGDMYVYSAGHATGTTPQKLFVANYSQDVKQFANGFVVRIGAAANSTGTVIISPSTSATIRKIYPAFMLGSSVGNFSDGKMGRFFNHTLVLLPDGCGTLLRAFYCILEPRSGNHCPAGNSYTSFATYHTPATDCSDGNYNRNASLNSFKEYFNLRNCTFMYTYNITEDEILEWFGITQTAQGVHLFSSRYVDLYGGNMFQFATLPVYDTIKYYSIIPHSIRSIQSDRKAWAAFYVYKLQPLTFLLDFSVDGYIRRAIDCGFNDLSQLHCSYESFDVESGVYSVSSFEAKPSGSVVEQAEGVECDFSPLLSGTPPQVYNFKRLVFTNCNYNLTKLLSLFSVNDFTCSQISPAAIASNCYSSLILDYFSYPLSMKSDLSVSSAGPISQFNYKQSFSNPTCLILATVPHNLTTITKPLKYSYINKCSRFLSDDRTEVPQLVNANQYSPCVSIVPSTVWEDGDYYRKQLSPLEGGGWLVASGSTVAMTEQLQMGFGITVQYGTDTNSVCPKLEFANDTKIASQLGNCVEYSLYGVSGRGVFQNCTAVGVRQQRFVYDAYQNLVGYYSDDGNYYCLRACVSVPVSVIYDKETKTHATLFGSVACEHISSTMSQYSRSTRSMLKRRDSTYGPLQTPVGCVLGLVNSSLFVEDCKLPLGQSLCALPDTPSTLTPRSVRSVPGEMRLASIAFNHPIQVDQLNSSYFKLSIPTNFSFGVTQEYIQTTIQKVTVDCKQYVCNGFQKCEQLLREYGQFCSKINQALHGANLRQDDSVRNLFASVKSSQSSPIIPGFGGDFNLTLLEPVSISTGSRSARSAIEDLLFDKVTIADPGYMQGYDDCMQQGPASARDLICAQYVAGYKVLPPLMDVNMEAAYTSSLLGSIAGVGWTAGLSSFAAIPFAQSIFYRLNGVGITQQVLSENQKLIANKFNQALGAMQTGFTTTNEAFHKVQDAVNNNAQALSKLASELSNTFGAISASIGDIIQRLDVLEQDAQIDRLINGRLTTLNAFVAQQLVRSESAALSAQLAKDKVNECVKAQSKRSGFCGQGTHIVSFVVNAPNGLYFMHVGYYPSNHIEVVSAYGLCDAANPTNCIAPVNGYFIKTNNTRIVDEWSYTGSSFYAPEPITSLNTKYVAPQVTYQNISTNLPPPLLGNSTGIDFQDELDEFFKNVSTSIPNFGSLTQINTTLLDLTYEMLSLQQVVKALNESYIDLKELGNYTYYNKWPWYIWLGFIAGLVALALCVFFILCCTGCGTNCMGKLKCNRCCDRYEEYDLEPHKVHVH

B1: 10B8 VHH (VHH)
VHH: QVQLVESGGGLVQPGGSLRLSCAASGITLDYYAIAWFRQAPGKEREGVSCFCSSDGDIRYADSVKGRFTISRDNAKNTVYLQMNSLKPEDTAVYYCATERVYSSTWFFHRYSELDFGSWGRGTQVTVSS
B2: 7A9 VHH-Fc (Fc fusion)
chain: QVQLVESGGGLVQAGGSLRLSCSASGGTASRSAMGWFRQAPGKEREFVAGISRRNSGSTYVADSYEDSVKGRFTISRDNAKNTIYLQMNSLKPEDTAVYYCAAEPTLGWYVPRRSVEYEYWGQGTQVTVSS
B3: 3D4 VHH-Fc (Fc fusion)
chain: QVQLVESGGGLVQPGGSLRLSCAASGFTLDLNSIGWFRQAPGKEREGVSCISPSGSRMHYADSVKGRFTISRDNAKNTVYLQMNSLKPEDTAVYYCATGSPSYHYCSMYGLEYDSWGQGTQVTVPS
B4: 19C10 VHH-Fc (Fc fusion)
chain: B3 chain with G55A, R57S, M58T, S100T, S115D, P125S
B5: 15H7 VHH-Fc (Fc fusion)
chain: QVQLVESGGRLVQAGGSLRLSCAAPGRTFRNLTLGWFRQAPGKEREFVASTSWPDDEMTYYTDSVKGRFTISRDNAKNTVYLQMNSLKPEDTAVYYCAAASWSGRSTLSYDYDYWGQGTQVTVST
B6: 15H1 VHH-Fc (Fc fusion)
chain: QVQLVESGGGLAQAGGSLRLSCASSGLIFSGSAMGWFRQAPGKEREFVGVISWNGRTTYADSVKGRFTISRDDAVNMVWLQMNNLKPEDTAVYYCAADHLNYGSGDVNPRTYDYWGQGTQVTVSS
B7: 9B2 VHH-Fc (Fc fusion)
chain: QVQLVESGGGLVQPGGSLRLSCAASGFTLDNYAIGWFRQAPGKEREGVSCISSSDGDTQYADSVKGRFTISRDNAKNTVYLQMNSLKPEDTAVYYCAVEKVYARSWFFHLCSELDFGSWGQGTQVTVSS
B8: 11F5 VHH-Fc (Fc fusion)
chain: QVQLVESGGGAVQAGDSLRLSCTASGRTFSTYAVGWFRQAPGKERELLAAITGSGRNPYYPDSLKGRFTISREYAKLPVYLQMNSLKPEDTAVYYCAARRGAIATMPLDYDHWGQGTQVTVSS
B9: 13C8 VHH-Fc (Fc fusion)
chain: QVQLVESGGGLVQAGGSLRLSCAASGRTVNKYMTGWFRQTPGKEREFVASIDWSSTTTHYANSVKGRFTISRDKVKNTVYLQMNGLKPEDTAVYYCAAHQDSSYGYTILPIDYDSWGQGTQVTVSS
B10: 1A11 VHH-Fc (Fc fusion)
chain: QVQLVESGGGLVQAGGSLRLSCEVSGSIYSINSMGWYRQAPGKQRELVAGIVSDGRINYADSVKGRFTISRAKNTVYLQMNSLKPEDTAVYYCAADRAFVYAGDYDYLGQGTQVTVSS
B11: 16H7 VHH-Fc (Fc fusion)
chain: QVQLVESGGGLVQAGGSLRLSCAASGRAFSKDTMGWFRQAPGKEREFVAVISASGDSTYYADFVKGRFTISRDNAKNTEYLQMNSLKPEDTAVYHCAADGARAYYSINAHRYSWAYNYWGQGTQVTVSS
B12: 19E10 VHH-Fc (Fc fusion)
chain: QVQLVESGGGLVQPGGSLRLSCVASGSTISINSMGWYRQAPGKAREMVATITNDGPIKYADPVKGRFTISRDNPKNTVYLQMNSLKPEDTAVYYCVADRAYWLAGEWEYWGQGTQVTVSS
B13: 5A6 VHH-Fc (Fc fusion)
chain: QVQLVESGGGLAQAGGSLRLSCATSGLTFSMSAMGWFRQAPGNEREFVGVINWNGGSSRYADSVRGRFTISRDNAKNTVYLQMNSLKPEDTGVYYCAADALNIGTGEVNPRLYDYWGQGTQVMVSS
B14: 8E9 VHH-Fc (Fc fusion)
chain: QVQLVESGGGLVEAGGSLRLSCVASGSSSSINAMGWYRQAPGKQRELVASISHDGETKYANSVKGRFTISRGNAKNTIYLQMNSLKPEDTAVYYCVGDVAWVVVAGEYDYWGQGTQVTVSS
B15: 20D11 VHH-Fc (Fc fusion)
chain: QVQLVESGGGLVQAGGSLRLSCAASGRTSSIYSVGWFRQAPGKERELVAGITWSGGTTYYSDSVKGRFTISRDNAKNTVNLQMNNLKPEDTAIYYCAVDRYSMTMSARDYDYWGQGTQVTVSS
B16: 14F3 VHH-Fc (Fc fusion)
chain: B15 chain with S33G, G50L, R72K, N80F, R100T, D111E
B17: 19B8 VHH-Fc (Fc fusion)
chain: QVQLVESGGGLVQAGGSLRLSCAASGRTFTNYAMGWFRQAPGKEREFVAAISWSGGGTNYADSVKGRFTISRDNAKNTVYLQMNSPKPEDTAVYYCATTLGYYGSSSRLYEYWGQGTQVTVSS
B18: S3_44 VHH-Fc (Fc fusion)
chain: QVQLVESGGGLVQPGGSLRLSCARSENNFSINAMAWYRQAPGKQRELVAAITTAGTTNYADSVKGRFTISRDNAKTTIYLQMNSLKPEDTAVYYCNLWAGTRDDLNEYWGQGTQVTVSS
B19: S3_29 VHH-Fc (Fc fusion)
chain: B18 chain with A54S
B20: 11F8 VHH-Fc (Fc fusion)
chain: QVQLVESGGGLVQAGGSLRLSCAASGRTVGYYAVGWFRQAPGKERDFVAAISWSGRNTNYADSVTGRFTIFRDNAKNTVDLQMNSLKPEDTAVYYCAADYWNYGSGSEVPNNYDTWGQGTQVTVSS
B21: 5D7 VHH-Fc (Fc fusion)
chain: QVQLVESGGGLVQAGGSLRLSCAASGRTGSRYIMGWFRQAPGKEREFVAAINWRGDSTYYADSVKGRFTIARDNAKNTAYLQMNSLKPEDTAVYYCVADRGESYYYTRSTEYTYWGQGTQVTVSS

Target: spike protein of authentic SARS-CoV/Urbani virus (SARS-CoV, UniProt P59594 14-1255)
Experiment: cell-based or functional assay

Binder | authentic virus neutralization IC50 [nM]
B1 | 0.15

Target: spike protein of authentic SARS-CoV-2 virus (SARS-CoV-2, UniProt P0DTC2 14-1273)
Experiment: cell-based or functional assay

Binder | authentic virus neutralization IC50 [nM]
B1 | 2.9

Target: T2, SARS-CoV-2 spike protein on recombinant CHO K1 cells (SARS-CoV-2, UniProt P0DTC2 14-1273)
T2 construct: whole, on cells
Experiment: FACS on CHO K1 cells

Binder | EC50 [nM]
B2 | 0.08
B3 | 0.15
B4 | 0.17
B5 | 0.28
B6 | 0.25
B7 | 0.21
B8 | 0.04
B9 | 0.22
B10 | 0.13
B11 | 0.31
B12 | 0.14
B13 | 0.43
B14 | 0.31
B15 | 0.08
B16 | 0.06
B17 | 0.04
B18 | 0.08
B19 | 0.03
B20 | 0.08
B21 | 0.12

Target: SARS-CoV spike protein on recombinant CHO K1 cells (SARS-CoV, UniProt P59594 14-1255)
Experiment: FACS on CHO K1 cells

Binder | EC50 [nM]
B2 | 0.05
B5 | 0.14
B6 | 0.14
B7 | 0.13
B9 | 0.11
B10 | 0.06
B12 | 0.08
B13 | 0.21
B14 | 0.17
B20 | 0.09
B21 | 0.09

Target: T1, MERS spike protein on recombinant CHO …
Experiment: FACS on CHO K1 cells

Binder | binding result | EC50 [nM]
B2 | no binding | –
B3 | no binding | –
B4 | no binding | –
B5 | no binding | –
B6 | no binding | –
B7 | no binding | –
B8 | no binding | –
B9 | no binding | –
B10 | no binding | –
B11 | no binding | –
B12 | no binding | –
B13 | no binding | –
B14 | no binding | –
B15 | no binding | –
B16 | no binding | –
B17 | no binding | –
B18 | – | 0.11
B19 | – | 0.05
B20 | no binding | –
B21 | no binding | –

Target: SARS-CoV spike on rVSV-deltaG-Luc pseudovirus (SARS-CoV, UniProt P59594 14-1236)
Experiment: cell-based or functional assay

Binder | pseudovirus neutralization IC50 [nM]
B3 | 0.4
B4 | 0.45
B5 | 1.71
B6 | 12.3
B7 | 0.19
B9 | 4.98
B10 | 0.18
B12 | 0.12
B13 | 6.3
B14 | 2.94
B17 | 42
B20 | 207
B21 | 220
